Assay results: patent US20240034814A1 (JANUX THERAPEUTICS, published 2024)

Legend:
[1] = biological target: T1, TROP2 on NCI-H292 tumor cells (UniProt P09758 27-274); test: cell-based or functional assay
T1 sequence (looked up): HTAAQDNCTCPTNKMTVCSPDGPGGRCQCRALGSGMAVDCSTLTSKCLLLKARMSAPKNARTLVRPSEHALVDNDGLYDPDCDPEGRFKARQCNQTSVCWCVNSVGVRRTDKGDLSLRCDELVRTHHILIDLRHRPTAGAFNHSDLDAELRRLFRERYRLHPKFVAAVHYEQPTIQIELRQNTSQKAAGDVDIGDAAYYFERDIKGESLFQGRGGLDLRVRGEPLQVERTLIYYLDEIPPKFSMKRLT

[2] = biological target: T1, TROP2 on NCI-H292 tumor cells; test: Trop2 binding ELISA (TROP2 as ELISA antigen, not on cells), polypeptide complex titrated, OD 450 nm
human serum albumin [3] = biological target: T2, human serum albumin (human, UniProt P02768 25-609); test: ELISA, albumin coated plates, single domain antibody titrated, pH 5.5
T2 construct: also called HSA; HSA-biotin

[4] = biological target: T3, cynomolgus monkey serum albumin (cynomolgus monkey, UniProt A2V9Z4 25-608); test: as above
T3 construct: Coated on ELISA plates; also called cyno albumin
T3 sequence (A2V9Z4 25-608 limits assumed): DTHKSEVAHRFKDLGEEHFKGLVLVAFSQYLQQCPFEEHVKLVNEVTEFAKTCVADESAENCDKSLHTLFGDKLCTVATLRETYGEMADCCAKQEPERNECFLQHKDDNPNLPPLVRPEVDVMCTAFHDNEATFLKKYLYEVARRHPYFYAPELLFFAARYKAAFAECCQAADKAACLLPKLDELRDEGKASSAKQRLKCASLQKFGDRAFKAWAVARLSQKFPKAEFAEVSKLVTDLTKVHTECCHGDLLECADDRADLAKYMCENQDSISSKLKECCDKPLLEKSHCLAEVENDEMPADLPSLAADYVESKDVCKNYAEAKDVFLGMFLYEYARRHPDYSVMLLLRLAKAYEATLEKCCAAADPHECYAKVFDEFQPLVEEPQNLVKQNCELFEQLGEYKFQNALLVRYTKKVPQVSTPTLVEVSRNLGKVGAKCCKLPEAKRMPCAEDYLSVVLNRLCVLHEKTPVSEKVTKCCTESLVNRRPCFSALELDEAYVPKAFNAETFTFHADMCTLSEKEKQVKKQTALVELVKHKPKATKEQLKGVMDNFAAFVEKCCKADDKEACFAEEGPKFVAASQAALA

human serum albumin [5] = biological target: T2, human serum albumin; test: ELISA, albumin coated plates, single domain antibody titrated, pH 7.4
[6] = biological target: T3, cynomolgus monkey serum albumin; test: as above
human serum albumin [7] = biological target: T2, human serum albumin; test: BLI (Octet RED96), biotinylated HSA on streptavidin biosensors, HE-1 titrated 100-3.125 nM, pH 7.4, 1:1 fit
Mouse Albumin = biological target: T4, Mouse Albumin (mouse, UniProt P07724); test: ELISA on an albumin coated plate, single domain antibody titrated, HRP secondary antibody, OD 450 nm
T4 construct: coated on the ELISA plate; not described further; also called mouse serum albumin
T4 sequence (P07724 25-608 limits assumed): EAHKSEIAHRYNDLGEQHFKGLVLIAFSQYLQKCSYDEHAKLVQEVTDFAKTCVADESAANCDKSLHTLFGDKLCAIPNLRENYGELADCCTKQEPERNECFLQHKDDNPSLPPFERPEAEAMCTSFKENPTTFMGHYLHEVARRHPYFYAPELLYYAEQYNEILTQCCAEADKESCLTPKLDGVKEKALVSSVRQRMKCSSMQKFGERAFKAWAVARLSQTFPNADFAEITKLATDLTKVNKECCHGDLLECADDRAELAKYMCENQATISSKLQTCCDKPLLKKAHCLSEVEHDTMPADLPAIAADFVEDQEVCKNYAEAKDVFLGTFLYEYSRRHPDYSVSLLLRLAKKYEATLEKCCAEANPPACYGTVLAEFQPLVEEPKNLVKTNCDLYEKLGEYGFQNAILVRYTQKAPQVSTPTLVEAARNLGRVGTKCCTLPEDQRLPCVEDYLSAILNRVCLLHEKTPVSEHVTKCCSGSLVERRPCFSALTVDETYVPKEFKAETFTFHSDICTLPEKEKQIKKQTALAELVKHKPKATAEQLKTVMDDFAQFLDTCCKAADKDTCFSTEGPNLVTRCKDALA

[8] = biological target: T3, cynomolgus monkey serum albumin; test: as above
human serum albumin [9] = biological target: T2, human serum albumin; test: as above
human serum albumin [10] = biological target: T2, human serum albumin; test: BLI (Octet RED96), biotinylated HSA on streptavidin biosensors, HE-1 titrated 100-3.125 nM, association and dissociation at pH 5.5, 1:1 fit
human serum albumin [11] = biological target: T2, human serum albumin; test: Octet, biotinylated human serum albumin on streptavidin biosensors, acidic buffer, association 1 (saturation using SDA)

B1: Polypeptide complex PC3 (bispecific antibody)
light: DIQLTQSPSSLSASVGDRVSITCKASQDVSIAVAWYQQKPGKAPKLLIYSASYRYTGVPDRFSGSGSGTDFTLTISSLQPEDFAVYYCQQHYITPLTFGAGTKVEIKRTVAAPSVFIFPPSDEQLKSGTASVVCLLNNFYPREAKVQWKVDNALQSGNSQESVTEQDSKDSTYSLSSTLTLSKADYEKHKVYACEVTHQGLSSPVTKSFNRGEC
heavy: QTVVTQEPSLTVSPGGTVTLTCRSSTGAVTTSNYANWVQQKPGQAPRGLIGGTNKRAPGTPARFSGSLLGGKAALTLSGVQPEDEAEYYCALWYSNLWVFGGGTKLTVLGGGGSGGGGSGGGGSEVQLVESGGGLVQPGGSLKLSCAASGFTFNTYAMNWVRQAPGKGLEWVARIRSKYNNYATYYADSVKDRFTISRDDSKNTAYLQMNNLKTEDTAVYYCVRHGNFGNSYVSWFAYWGQGTLVTVSSGGGGSQVQLQQSGSELKKPGASVKVSCKASGYTFTNYGMNWVKQAPGQGLKWMGWINTYTGEPTYTDDFKGRFAFSLDTSVSTAYLQISSLKADDTAVYFCARGGFGSSYWYFDVWGQGSLVTVSSASTKGPSVFPLAPSSKSTSGGTAALGCLVKDYFPEPVTVSWNSGALTSGVHTFPAVLQSSGLYSLSSVVTVPSSSLGTQTYICNVNHKPSNTKVDKKVEPKSC
notes: TROP2 and CD3 targeting regions (anti-CD3 scFv fused to the Fab heavy chain); No mask and no HE-1
For B1, the “H292 IC50 (pM), 72 hours, tumor cell killing with CD8+ T cells” value [1] was 0.88 pM and the “EC50 (read off the curve)” value [2] was ~0.2 nM.

B2: Polypeptide complex PC4 (bispecific antibody)
light: GGVDFCKIYSWPVCHQGGGGSGGLSGRSDAGSPLGLAGSGGSDIQLTQSPSSLSASVGDRVSITCKASQDVSIAVAWYQQKPGKAPKLLIYSASYRYTGVPDRFSGSGSGTDFTLTISSLQPEDFAVYYCQQHYITPLTFGAGTKVEIKRTVAAPSVFIFPPSDEQLKSGTASVVCLLNNFYPREAKVQWKVDNALQSGNSQESVTEQDSKDSTYSLSSTLTLSKADYEKHKVYACEVTHQGLSSPVTKSFNRGEC
heavy: not shown
B2 was tested, and the “H292 IC50 (pM), 72 hours, tumor cell killing with CD8+ T cells” value [1] was 4120 pM.

B3: HE-1 anti-albumin (VHH)
VHH: EVQLVESGGGLVQPGGSLRLSCAASGSTFYTAVMGWVRQAPGKGLEWVAAIRWTALTTSYADSVKGRFTISRDGAKTTLYLQMNSLRPEDTAVYYCAARGTLGLFTTADSYDYWGQGTLVTVSS
notes: Single domain antibody; also called half-life extending single domain antibody
Binder B3 has an EC50 (human serum albumin [3]) of 0.9 nM, an EC50 [4] of 1.3 nM and an EC50 (human serum albumin [5]) of 1 nM. The EC50 [6] was 1.3 nM, the Kd (human serum albumin [7]) was 5.98 nM and the koff (human serum albumin [7]) was 0.00341 s⁻¹. The kon (human serum albumin [7]) was 571000 M⁻¹ s⁻¹, the binding result (Mouse Albumin) was “binds” and the “EC50 (read off the curve)” value [8] was ~2 nM. For the same binder, the “EC50 (read off the curve)” value (human serum albumin [9]) was ~1 nM, the Kd (human serum albumin [10]) was 4.19 nM and the koff (human serum albumin [10]) was 0.00186 s⁻¹. The kon (human serum albumin [10]) was 444000 M⁻¹ s⁻¹.

B4: HE-2 (VHH)
VHH: EVQLVESGGGLVQPGGSLRLSCAASGSTFYTAVMGWVRQAPGKGLEWVAAIRWTALTTSYADSVKGRFTISRDGAKTTLYLQMNSLRPEDTAVYYCAARGTLGLFTTADHYDYWGQGTLVTVSS
notes: also called (HE-2) Anti-albumin
B4: binds (human serum albumin [11]).
